Experimental data from publication PMC3821618.

Target: TagRFP-T (Entacmaea quadricolor)
Test: fluorescence correlation spectroscopy (FCS), molecular brightness analysis; live transfected mouse GHFT1 cells, cytosol; molecular brightness Mb = CPS/(N*Po) from one-component autocorrelation fits, compared with published intrinsic brightness and between FP alone and FP-BZip; 561 nm excitation, 36 °C, 5% CO2

Substance: TagRFP-T
- fraction of the molecules that are dimers: 30%
